Broadly, the Kd is the concentration at which binding is half-saturated. High values mean lower affinity, low ones higher affinity. What is called EC50 is the midpoint of the concentration-response curve.

Where no end group is shown, it is not given here. [ ]: non-standard residue; d: D form. pT = C[C@@H](OP(=O)(O)O)[C@H](N)C(=O)O; pS = N[C@@H](COP(=O)(O)O)C(=O)O Where only a bound is given, the exact number is not on record here.

In assay [1] the target is T1, iPHF (UniProt P10636-8 2-441, limits assumed).
T1 construct: also called iPHF tau
As to the kind of experiment: BLI (Octet), antibody on biosensor tip, iPHF in solution. Here is the method:
Anti-human tau antibodies were assessed for affinity for iPHF by Octet (ForteBio, Menlo Park, CA) analysis. A set of recombinant human IgG1 antibodies were prepared with clone-specific variable domain pairs selected from those presented in Table 1 and human IgG1 constant domains. Candidate antibodies were immobilized on biosensor tips (ForteBio) in kinetic buffer (ForteBio). Biosensor tips were then washed before introduction of a solution of iPHF in kinetic buffer for analysis of association and dissociation with candidate antibodies.
In general terms: BLI is a label-free optical method that tracks binding on a fibre tip over time.

Assay [2] concerns the target T1, iPHF. The experiment in a line: follow up selectivity analysis, iPHF over wild-type tau; method not stated.
For assay [3], the target named is T2, enriched paired helical filament tau protein (ePHF; sarkosyl insoluble tau) (human, UniProt P10636 2-758). As to the kind of experiment: direct ELISA, ePHF coated. How it is done: (§1) A set of recombinant human IgG1 antibodies were prepared with clone-specific variable domain pairs selected from those presented in Table 1 and human IgG1 constant domains. These candidate antibodies were analyzed for binding to ePHF and specificity for ePHF over wild type tau by direct ELISA.
(§2) For direct ePHF and wildtype tau ELISA, plates were first coated with ePHF or wild type tau. Antigen solutions were prepared in PBS and 50 μL were pipetted into each well. Plates were covered and incubated for one hour at 37° C. or overnight at 4° C. Plates were then washed and blocked by addition of 150 μl of blocking buffer to each well and incubated one hour at room temperature. Plates were then washed before addition of serially diluted candidate antibody samples prepared in blocking buffer. Detection of candidate antibody binding was carried out by washing plates and adding a solution of enzyme-labeled secondary antibody in blocking buffer to each well. Secondary antibody binding was detected by addition of substrate and spectrophotometric analysis of resulting reaction product.

A further assay addresses T3, wild type tau (human, UniProt P10636 2-758).
T3 construct: also called WT
The experiment in a line: direct ELISA, wild type tau coated. How it is done:
as §1, §2

The target of assay [4] is T1, iPHF. The experiment in a line: SPR (Biacore 8K).
For another assay, the target named is T4, tPeptide 5 (204-222) (human).
T4 peptide: GTPGSRSR[pT]P[pS]LP[pT]PPTRE
The experiment in a line: one point ELISA. The source says:
(§3) One-point ELISA was used to determine differential binding based on the individual phosphorylation patterns of each peptide. OD values (450 nm) were collected (as shown in Table 13), where a stronger positive signal is shown as a higher OD value, which is indicative of increased binding.
In general terms: ELISA stands for enzyme-linked immunosorbent assay.

The next assay deals with T5, AC04 peptide (human, phosphothreonine at T212 and T217 of tau (peptide positions 4, 9)).
T5 construct: Tau-derived peptide with an N-terminal Cys
T5 peptide: CSRTPSLPTPPTREPK
The experiment in a line: one point ELISA.
Description: as §3

For the next assay, the target named is T6, wtTau C2 (human).
T6 peptide: PTREPKKVA
As to the kind of experiment: one point ELISA.
Description: as §3

The target of assay [5] is T2, enriched paired helical filament tau …. The experiment in a line: follow up selectivity analysis, ePHF over wild-type tau; method not stated.
Assay [6] has the same target. The experiment in a line: cell-based or functional assay.
The target in assay [7] is T7, AT8 peptide (amino acids 195-215 of tau) (human, phospho-peptide, phosphorylated sites not stated in the example; immobilized on streptavidin tips).
T7 peptide: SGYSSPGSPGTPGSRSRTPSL
As to the kind of experiment: BLI (Octet), phospho-peptide on streptavidin tips. How it is done: Briefly, phospho-peptides were immobilized on streptavidin biosensor tips and the binding ability of each antibody was assessed using an eight-point concentration gradient.

The target of assay [8] is T8, Tau191-214 phospho-peptide (pS199) (human, phosphoserine at S199 of tau (peptide position 9); SCBio-4PEG label).
T8 construct: also called pS199 peptide
As to the kind of experiment: one point ELISA.
Description: as §3

Assay [9] concerns the target T9, pS199-old (SCBio-4PEG-Peptide, Tau191-214) (human, phosphoserine at S199 of tau by the row label; SCBio-4PEG label).
T9 construct: The suffix -old is not explained
The experiment in a line: one point ELISA.
Description: as §3

T8 sequence (peptide, as listed by the source): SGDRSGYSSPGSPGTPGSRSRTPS
T2 sequence (P10636 other isoform, or with tags, fused parts or gaps limits assumed): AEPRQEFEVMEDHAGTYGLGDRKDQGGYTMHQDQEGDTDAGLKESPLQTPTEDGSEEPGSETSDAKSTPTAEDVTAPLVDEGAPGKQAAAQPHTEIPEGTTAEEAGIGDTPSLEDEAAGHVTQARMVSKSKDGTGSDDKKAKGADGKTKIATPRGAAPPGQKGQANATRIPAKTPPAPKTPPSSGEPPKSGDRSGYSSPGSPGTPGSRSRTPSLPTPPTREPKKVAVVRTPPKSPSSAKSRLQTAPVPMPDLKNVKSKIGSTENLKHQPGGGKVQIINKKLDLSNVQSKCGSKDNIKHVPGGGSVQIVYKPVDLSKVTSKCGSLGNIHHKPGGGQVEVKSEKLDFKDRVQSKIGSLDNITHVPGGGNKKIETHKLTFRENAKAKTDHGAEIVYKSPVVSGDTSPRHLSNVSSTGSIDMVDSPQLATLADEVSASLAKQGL
T3 sequence (P10636 other isoform, or with tags, fused parts or gaps limits assumed): as above
T1 sequence (P10636 other isoform, or with tags, fused parts or gaps limits assumed): as above

B1: VY018 (antibody, V domains shown)
VH: QVQLQESGPGLVKPSETLSLTCTVSGGSISNYYWSWIRQPAGKGLEWIGRIYTSGDTYYNPSLQSRVTMSVDTSKNQFSLKLSAVTAADTAVYYCARAGIVGTPGLGMDVWGQGTTVTVSS
VL: SYELTQPPSVSVSPGQTARITCSGEALPKQYAYWYQQKPGQAPVLVIYKDSERPSGIPERFSGSSSGTTVTLTISGVQAEDEADYYCQSADSSGTYRVFGGGTKLTVL
With B1, the Kd with iPHF [1] turned out to be 3 nM. The “selectivity iPHF:WT” value in the assay with iPHF [2] is above 73 fold.

B2: VY013 (antibody, V domains shown)
VH: QVTLKESGPVLVKPTETLTLTCTVSGFSLINARMAVSWIRQPPGKALEWLAHIFSNDEKSYSTSLKSRLTISKDTSKSQVVLIMTNMDPVDTATYYCARIRGYSYNYGMDVWGQGTTVTVSS
VL: DIVMTQSPLSLPVIPGEPASISCRSSQSLLHSNGYIYLDWYLQKPGQSPQLLIYVGSNRASGVPDRFSGSGSGTDFKLKISRVEAEDVGVYYCMQTLQIPRTFGGGTKVEIK
Turning to B2, the half-maximal effective concentration (EC50) in [3] was 0.06 nM; with wild type tau, 0.98 nM. In the assay with iPHF [1], this molecule came in with a Kd of 2.9 nM.

B3: VY004 (antibody, V domains shown)
VH: EVQLVESGGGLVQAGGSLRLSCAASGFTFSDYSMNWVRQAPGKGLEWVSYIRSSSSIIYYADSVKGRFTISRDNAKNSLHLQMNSLRDEDTAVYYCARRGHFDYWGQGTLVTVSS
VL: EIVLTQSPATLSLSPGERATLSCRASQSVSDYLAWYQQKPGQAPRLFIYDVSKRATGIPARFSGSGSGTDFTLTISSLEPEDFAVYYCQQRSNWPLTFGGGTKVEIK
As to B3, the dissociation constant Kd with iPHF [4] was 11.7 nM; with iPHF [1], 3.7 nM. The molecule further registered a 50% effective concentration (EC50) in assay [3] of 0.07 nM. In addition, the “OD (450 nm)” value is 0.382 OD450 with tPeptide 5 (204-222), 2.85 OD450 with AC04 peptide and 0.169 OD450 in the assay with wtTau C2. Also, in assay [5], the “selectivity ePHF:WT” value is above 59 fold. The “Average IC50 (nM) for inhibiting tau aggregation after immunodepletion of ePHF (tau RD Biosensor cells)” value in assay [6] was 9.39 nM. Also, the “selectivity iPHF:WT” value in the assay with iPHF [2] was above 382 fold.

B4: VY017 (antibody, V domains shown)
VH: EVQLVESGGGLVQPGGSLRLSCAASGFTFSSYSMNWVRQAPGKGLEWVSYIRSSSSTIYYADSVKGRFTISRDNAKKSLYLQMNSLRDEDTAVYYCARRSIADYWGQGTLVTVSS
VL: EIVLTQSPATLSSSPGERATLSCRASQSVTSYLNWYQQKPGQAPRLLIYDASNRATGIPARFSGSGSGTDFTLTISSLEPEDFALYYCQQRSNWPYTFGQGTKLEIK
As to B4, in the assay with iPHF [1], the dissociation constant Kd stood at 3.7 nM.

B5: VY009 (antibody, V domains shown)
VH: QITLKESGPTLVKPTQTLTLTCTLSGFSLSTSEVGVGWIRQPPGKALEWLAIIYWNDHKRYSPSLKNRLTFTKDTSKNQVVLTMTNMDPVDTATYYCARRVTGEGFDPWGQGTLVTVSS
VL: SYELTQPPSVSVSPGQTARITCSGDALPKQYAYWYQQKPGQAPVLVIFKDTERPSGIPERFSGSSSGTTVTLTISGVQAEDEADYYCQSADSSGSYVFGTGTKVTVL
The molecule B5 showed an EC50 in [3] of 1.74 nM. The Kd with iPHF [1] amounted to 1.1 nM.

B6: VY019 (antibody, V domains shown)
VH: QVQLQESGPGLVKPSETLSLTCTVSGGSISSYYWTWIRQPAGKGLEWIGRIDTSGSTNYNPSLKSRVTMSIDTSKKQFSLKLSSVTAADTAVYYCARGGDGYRYWGQGTLVTVSS
VL: SYELTQPPSVSVSPGQTARITCSGDALPKQYACWYQQKPGQAPVLVIYKDSERPSGIPERFSGSSSGTTVTLTITGVQAEDEADYYCQSTDSSGSWVFGGGTKLTVL
As to B6, the binding result (in assay [3]; with wild type tau) was “no binding” each time.

B7: VY006 (antibody, V domains shown)
VH: EVQLVESGGGLVQPGGSLRLSCAASGFTFSSYTMNWVRQAPGKGLEWVSYISSSSSTIYYADSVKGRFTISRDNAKNSLYLQMNSLRDEDTAVYYCASLGRGDCWGQGTLVTVSS
VL: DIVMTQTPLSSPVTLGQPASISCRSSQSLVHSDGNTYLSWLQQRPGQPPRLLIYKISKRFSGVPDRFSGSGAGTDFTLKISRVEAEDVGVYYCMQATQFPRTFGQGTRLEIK
As to B7, the Kd with iPHF [4] was determined as 0.356 nM; in assay [7] it was 0.00382 nM; with iPHF [1] it was 1.5 nM. It took 0.11 nM to reach a half-maximal effect in [3] (EC50). The “OD (450 nm)” value in assay [8] worked out at 0.054 OD450; in [9], 0.063 OD450. Besides, in assay [5], the “selectivity ePHF:WT” value is above 40 fold. For the same molecule, the “Average IC50 (nM) for inhibiting tau aggregation after immunodepletion of ePHF (tau RD Biosensor cells)” value in assay [6] amounted to 8.3 nM. Moreover, the “selectivity iPHF:WT” value in the assay with iPHF [2] is above 145 fold.

B8: VY005 (antibody, V domains shown)
VH: EVQLVESGGGLVQPGGSLRLSCAASGFTFSSYSMNWVRQAPGKGLEWISYISSSNSTIKYADSVKGRFTISRDNAKNSLYLQMNSLRDEDTAVYYCARRSLGDYWGQGTLVIVSS
VL: DIQLTQSPSFLSASVGDRVTITCRASQGISCSLAWYQQKPGKAPKLLIYAASTLQSGVPSRFSGSGSGTEFTLTISSLQPEDFATYYCQQFNSYPFTFGPGTKVDIK
For B8, in assay [3], a half-maximal effect (EC50) was put at 0.07 nM. Also, the “OD (450 nm)” value was found to be 0.288 OD450 in the assay with tPeptide 5 (204-222), 2.83 OD450 in the assay with AC04 peptide and 0.153 OD450 with wtTau C2. The molecule also yielded a dissociation constant Kd with iPHF [1] of 1 nM.

B9: VY016 (antibody, V domains shown)
VH: EVQLVESGGGLVQPGGSLRLSCAASGFTFSSYSMNWVRQAPGKGLEWVSYISRSGSTIYYADSVEGRFTISRDNAYNSLYLQMISLRDDDTAVYYCARGNWAYWGQGILVTVSS
VL: QSVLTQPPSVSGAPGQRVTISCTGSSSNIGAGYDVHWYQQLPGTAPKLLIYGNSNRPSGVPDRFSGSKSGTSASLAITGLQAEDETDFYCQSYDSSLSGSVFGGGTKLTVL
On to B9, for which the binding result (in [3]; with wild type tau) was “no binding” throughout.

B10: VY012 (antibody, V domains shown)
VH: EVQLLESGGGLVQPGGSLRLSCAASGFTYSSYAMSWVRRAPGKGLEWISIISGSSSITYYADSMKGRFTISRDNSKNTLFLQMNSLRAEDTAVYYCAKGGRYGYFQHWGQGTLVTVSS
VL: SYVLTQPPSVSVAPGQTARITCGGNNIGSKSVHWYQQKPGQAPVLVVYDDSDRPSGIPERFSGSNSGNTATLTISRVEAGDEADYYCQVWDSSSDPVVFGGGTMLTVL
Consider B10, for which the half-maximal effective concentration (EC50) in assay [3] was 0.04 nM; with wild type tau it was 0.01 nM. Moreover, the Kd in the assay with iPHF [1] worked out at 5.1 nM.

B11: VY007 (antibody, V domains shown)
VH: EVQLVESGGGLVQPGGSLRLSCAASRFTFSNYNMNWVRQAPGKGLEWISYISSSSSTIYYADSVKGRFTISRDNAKNSLSLQMNSLRDEDTAVYYCASLGRGYWGQGTLVTVSS
VL: not shown
Take B11: the Kd is 0.596 nM with iPHF [4], 0.0182 nM in [7] and 0.6 nM in the assay with iPHF [1]. The molecule further had a concentration for a half-maximal effect (EC50) in assay [3] of 0.18 nM. The “OD (450 nm)” value in assay [8] and in [9] was 0.057 OD450 in each case. In addition, the “selectivity ePHF:WT” value in [5] was above 23 fold. For the same molecule, the “Average IC50 (nM) for inhibiting tau aggregation after immunodepletion of ePHF (tau RD Biosensor cells)” value in [6] is 36.3 nM. Further, the “selectivity iPHF:WT” value with iPHF [2] was above 109 fold.

B12: VY001 (antibody, V domains shown)
VH: EVQLVESGGGLVQPGGSLRLSCAASGFTFSSYNMNWVRQAPGKGLEWISYISSSSNTIYYADSVKGRFTVSRDNAKNSLYLQMNSLRDEDTAVYYCATLGRGYWGQGTLVIASS
VL: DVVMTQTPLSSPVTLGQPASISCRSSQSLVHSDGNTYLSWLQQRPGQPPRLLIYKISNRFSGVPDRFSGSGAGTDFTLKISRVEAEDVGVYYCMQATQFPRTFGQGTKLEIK
Regarding B12, the Kd in the assay with iPHF [4] came out at 0.293 nM; in assay [7], 0.00435 nM; with iPHF [1], 7.7 nM. The molecule also displayed an EC50 in assay [3] of 0.02 nM. Also, the “OD (450 nm)” value in assay [8] and in assay [9] was 0.059 OD450 in each case. Moreover, in [5], the “selectivity ePHF:WT” value is above 181 fold. Moreover, the “Average IC50 (nM) for inhibiting tau aggregation after immunodepletion of ePHF (tau RD Biosensor cells)” value in assay [6] came out at 12.5 nM. In addition, the “selectivity iPHF:WT” value with iPHF [2] was above 30 fold.

Values taken from US20250243263A1 (VOYAGER THERAPEUTICS, published 2025).
